Assay [1] deals with human PDGFR on BJ-5ta human fibroblasts (human) (UniProt P09619). As to the kind of experiment: flow cytometry on cells, soluble ligand titrated. For orientation: A flow cytometer gives signals particle by particle.
The target is the same in assay [2]. As to the kind of experiment: flow cytometry on cells, soluble ligand titrated 3 h at 4 C, anti-FLAG-PE.
For assay [3] the target is unchanged. Nature of the assay: flow cytometry on BJ-5ta cells, soluble ligand titrated 5 h at 4 C, anti-FLAG-PE.
The target is the same in assay [4]. As to the kind of experiment: flow cytometry titration of the soluble FLAG-tagged protein on BJ-5ta cells, anti-FLAG detection.
Assay [5] has as its target mouse PDGFR on NIH/3T3 mouse fibroblasts (mouse) (UniProt P05622). As to the kind of experiment: flow cytometry on cells, soluble ligand titrated.
For assay [6] the target is unchanged. As to the kind of experiment: flow cytometry on cells, soluble ligand titrated 3 h at 4 C, anti-FLAG-PE.

Positions count from the first letter of the chain named. Names may count otherwise.

B1: PVAM-S (PV R32A), soluble, FLAG and hexahistidine tags (designed binder)
chain: DYKDDDDKIAEPAMIAECHPIETLVDILQEYPDEIGYIFKPSCVPLMRCGGCCNNRNVQCRPTEESNITMQIMRIKPHRGQHIGEMSFLQHNKCRCETVAAGSTSGSGKSSEGKGEVVKFMDVYQRSYCKTRTEVFEISRRLIDATNANFLVWPPCVEVQRCSGCCNHEGLECVPTQVQLRPVQVRKIEFVRKKPIFKKATVTLEDHLACECRPKKDHHHHHH
Take B1: the fold decrease in Kd compared to PV6 in assay [1] was 41 fold. Also, the Kd (as a rule, the equilibrium constant for the complex coming apart) in assay [2] came to 10.9 pM; in assay [3], 5.1 pM. The half-maximal effective concentration (EC50 (read off the curve)) (as a rule, the midpoint of the concentration-response curve) in assay [4] stood at 6 pM.

B2: PV RF (PV K87R chain 1 and PV I182F chain 2), soluble, FLAG and hexahistidine tags (designed binder)
chain: B1 chain with L28F, G36E, R79Q, A145R, H168D
Turning to B2, the results for the fold decrease in Kd compared to PV6 in assay [1] and in assay [5] were 63 fold and 22 fold, respectively. For the same molecule, the Kd in assay [2] came to 7.1 pM; in assay [6] it was 0.015 nM.

Source of the values: US20180111972A1.
